Results as given in patent publication US20230159646A1 (IBIO, published 2023).
Blank lines part the entries; values can stand above or below the binder they belong to.

Tests used:
[1] = target: T1, CD25 (as used in the Carterra LSA kinetics; species and construct not stated) (Homo sapiens (Human), UniProt P01589 22-240); test: Carterra LSA kinetics
T1 sequence: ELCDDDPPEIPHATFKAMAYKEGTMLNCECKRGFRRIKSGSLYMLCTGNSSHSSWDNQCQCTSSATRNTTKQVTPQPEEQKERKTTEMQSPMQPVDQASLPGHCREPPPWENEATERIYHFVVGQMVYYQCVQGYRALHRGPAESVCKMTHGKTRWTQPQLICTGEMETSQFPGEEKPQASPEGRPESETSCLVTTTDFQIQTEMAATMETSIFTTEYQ

[2] = target: T1, CD25 (as used in the Carterra LSA …); test: Carterra LSA kinetics; KD SD 1.27 nM
[3] = target: T2, mouse CD25 (immobilized, ELISA) (mouse, UniProt P01590 22-236, limits assumed); test: ELISA, immobilized mouse CD25 (N/A in the 14th table, row 10, column 6)
T2 construct: also called immobilized mouse CD25
T2 sequence (looked up): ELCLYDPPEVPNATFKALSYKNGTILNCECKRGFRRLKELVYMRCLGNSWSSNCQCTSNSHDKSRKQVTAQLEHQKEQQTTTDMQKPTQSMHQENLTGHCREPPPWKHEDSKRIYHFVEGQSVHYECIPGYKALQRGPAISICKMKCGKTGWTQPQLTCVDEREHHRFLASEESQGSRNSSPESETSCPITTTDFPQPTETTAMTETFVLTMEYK

[4] = target: T3, human CD25 (Sino Biologicals, 10165-H08H) (human, UniProt P01589 22-213); test: ELISA, immobilized human CD25; average of n>=3, SD 3.2
T3 construct: Bought recombinant protein coated on ELISA plates; also called immobilized human CD25; IL2RA
T3 sequence (looked up): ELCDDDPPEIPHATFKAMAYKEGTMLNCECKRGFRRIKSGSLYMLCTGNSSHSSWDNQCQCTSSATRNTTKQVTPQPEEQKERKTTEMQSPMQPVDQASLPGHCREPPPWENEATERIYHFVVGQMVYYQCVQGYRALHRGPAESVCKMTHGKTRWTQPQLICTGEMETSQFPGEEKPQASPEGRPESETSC

[5] = target: T4, CD25 endogenously expressed on SUDHL-1 human lymphoma cell line and on induced human Treg (iTreg) (human, UniProt P01589 22-272); test: flow cytometry, SUDHL-1 cells; average of n>=6, SD 38.12
T4 construct: whole, on cells; also called CD25 on SUDHL-1 and iTreg; CD25 expressing SUDHL-1
T4 sequence (looked up): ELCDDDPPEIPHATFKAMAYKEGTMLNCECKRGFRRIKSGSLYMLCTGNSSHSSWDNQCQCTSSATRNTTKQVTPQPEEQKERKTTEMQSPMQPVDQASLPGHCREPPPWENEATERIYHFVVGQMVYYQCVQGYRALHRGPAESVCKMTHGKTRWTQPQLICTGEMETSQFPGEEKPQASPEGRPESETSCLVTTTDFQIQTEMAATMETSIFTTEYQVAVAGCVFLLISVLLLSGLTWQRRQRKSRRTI

[6] = target: T5, cynomolgus CD25 (Sino Biologicals, 90265-C08H) (cynomolgus, UniProt H6WS54 22-213); test: ELISA, immobilized cynomolgus CD25; average of n>=3, SD 9.8
T5 construct: Bought recombinant protein coated on ELISA plates; also called immobilized cynomolgus CD25; cynos monkey CD25
T5 sequence: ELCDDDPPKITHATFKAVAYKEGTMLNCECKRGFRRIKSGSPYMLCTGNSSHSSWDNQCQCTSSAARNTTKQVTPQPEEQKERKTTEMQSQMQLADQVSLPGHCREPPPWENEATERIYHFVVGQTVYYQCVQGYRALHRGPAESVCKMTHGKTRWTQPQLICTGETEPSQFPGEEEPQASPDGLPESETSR

[7] = target: T4, CD25 endogenously expressed on SUDHL-1 …; test: flow cytometry, human iTreg cells; average of n=3, SD 83.94
[8] = target: T1, CD25 (as used in the Carterra LSA …); test: Carterra LSA kinetics; KD SD 1.03 nM
[9] = target: T2, mouse CD25 (immobilized, ELISA); test: ELISA, immobilized mouse CD25 (N/A in the 14th table, row 8, column 6)
[10] = target: T3, human CD25 (Sino Biologicals, …); test: ELISA, immobilized human CD25; average of n>=3, SD 2.5
[11] = target: T4, CD25 endogenously expressed on SUDHL-1 …; test: flow cytometry, SUDHL-1 cells; average of n>=6, SD 39.9
[12] = target: T4, CD25 endogenously expressed on SUDHL-1 …; test: flow cytometry, human iTreg cells; average of n=3, SD 40.50
[13] = target: T5, cynomolgus CD25 (Sino Biologicals, …); test: ELISA, immobilized cynomolgus CD25; average of n>=3, SD 12.3
[14] = target: T2, mouse CD25 (immobilized, ELISA); test: ELISA, immobilized mouse CD25 (N/A in the 14th table, row 7, column 6)
[15] = target: T2, mouse CD25 (immobilized, ELISA); test: ELISA, immobilized mouse CD25 (N/A in the 14th table, row 9, column 6)

B1: IBIO-101-plant-afuc (SD-889825-PC-A; IBIO-101, c-105 plant Afucosylated) (antibody, human IgG1, kappa, V domains shown)
VH: QVQLVQSGAEVKKPGASLKISCKGSGYTFTDYAMHWVRQAPGQGLEWIGVISTYSGDAIYAQKFQGRATMTVDTSTSTAYLELSSLRSEDTAVYYCARGVTFDYWGQGTTVTVSS
VL: DIQMTQSPSSLSASVGDRVTITCRASQDISNYLEWYQQKPGKAPKLLVYNAKTLAEGVPSRFSGSGSGTDFTLTISSLQPEDFGTYYCQHHYDTPYTFGQGTKLEIKR
modifications: afucosylated glycan (made in C105 dXT/FT plants deficient in fucosylation and xylosylation)
notes: Signal peptide of the entries is not part of the mature antibody; Human IgG1 constant region, afucosylated; also called RTX-003; hD11
koff [1]: 0.00207 s⁻¹
kon [1]: 492000 M⁻¹ s⁻¹
Kd [2]: 4.27 nM
binding result [3]: no binding (tested: 10 µg/mL)
EC50 [4]: 0.0174 µg/mL
EC50 [5]: 0.123 µg/mL
EC50 [6]: 0.0424 µg/mL
EC50 [7]: 0.218 µg/mL

B2: IBIO-101-CHO-afuc (SD-889825-CG-A; IBIO-101, CHO cells Afucosylated) (antibody, human IgG1, kappa, V domains shown)
VH: QVQLVQSGAEVKKPGASLKISCKGSGYTFTDYAMHWVRQAPGQGLEWIGVISTYSGDAIYAQKFQGRATMTVDTSTSTAYLELSSLRSEDTAVYYCARGVTFDYWGQGTTVTVSS
VL: DIQMTQSPSSLSASVGDRVTITCRASQDISNYLEWYQQKPGKAPKLLVYNAKTLAEGVPSRFSGSGSGTDFTLTISSLQPEDFGTYYCQHHYDTPYTFGQGTKLEIKR
modifications: afucosylated glycan (as printed: afucosylated)
notes: signal peptide of the entries is not part of the mature antibody; Human IgG1 constant region, afucosylated; also called RTX-003; hD11
koff [1]: 0.00119 s⁻¹
kon [1]: 499000 M⁻¹ s⁻¹
Kd [8]: 3.9 nM
binding result [9]: no binding (tested: 10 µg/mL)
EC50 [10]: 0.0156 µg/mL
EC50 [11]: 0.126 µg/mL
EC50 [12]: 0.219 µg/mL
EC50 [13]: 0.0431 µg/mL

Other lines, results leading:

binding result [14]: no binding (tested: 10 µg/mL)
B3: IBIO-101-CHO-WT (SD-889825-CW-A; IBIO-101, wild-type CHO cells) (antibody, human IgG1, kappa, V domains shown)
VH: QVQLVQSGAEVKKPGASLKISCKGSGYTFTDYAMHWVRQAPGQGLEWIGVISTYSGDAIYAQKFQGRATMTVDTSTSTAYLELSSLRSEDTAVYYCARGVTFDYWGQGTTVTVSS
VL: DIQMTQSPSSLSASVGDRVTITCRASQDISNYLEWYQQKPGKAPKLLVYNAKTLAEGVPSRFSGSGSGTDFTLTISSLQPEDFGTYYCQHHYDTPYTFGQGTKLEIKR
notes: the entries carry the plant extensin signal peptide, which is not part of the mature antibody; Human IgG1 constant region, fucosylated (WT); also called RTX-003; hD11

binding result [15]: no binding (tested: 10 µg/mL)
B4: IBIO-101-plant-WT (SD-889825-PW-A; IBIO-101, wild-type plant) (antibody, human IgG1, kappa, V domains shown)
VH: QVQLVQSGAEVKKPGASLKISCKGSGYTFTDYAMHWVRQAPGQGLEWIGVISTYSGDAIYAQKFQGRATMTVDTSTSTAYLELSSLRSEDTAVYYCARGVTFDYWGQGTTVTVSS
VL: DIQMTQSPSSLSASVGDRVTITCRASQDISNYLEWYQQKPGKAPKLLVYNAKTLAEGVPSRFSGSGSGTDFTLTISSLQPEDFGTYYCQHHYDTPYTFGQGTKLEIKR
notes: Signal peptide of the entries is not part of the mature antibody; Made in wild-type Nicotiana benthamiana; human IgG1 constant region; also called RTX-003; hD11
